According to publication PMC12371180, “Redox regulation of LSD1/CATALASE 2 phase separation condensates controls location and functions” (The New Phytologist, 2025):

T1: PEX5-CAT2 complex (Atto-488-labelled CAT2 saturated with PEX5) (Arabidopsis thaliana, UniProt P25819 1-492; Q9FMA3 1-728, labelled with Atto-488 (protein to dye 1:1))
T1 construct: catalase 2 (CAT2), Arabidopsis thaliana, full-length recombinant protein; as the chain of m2; PEX5, peroxisomal PTS1 import receptor, Arabidopsis thaliana, full-length recombinant protein; as the chain of m3
T1 sequence (looked up) 1: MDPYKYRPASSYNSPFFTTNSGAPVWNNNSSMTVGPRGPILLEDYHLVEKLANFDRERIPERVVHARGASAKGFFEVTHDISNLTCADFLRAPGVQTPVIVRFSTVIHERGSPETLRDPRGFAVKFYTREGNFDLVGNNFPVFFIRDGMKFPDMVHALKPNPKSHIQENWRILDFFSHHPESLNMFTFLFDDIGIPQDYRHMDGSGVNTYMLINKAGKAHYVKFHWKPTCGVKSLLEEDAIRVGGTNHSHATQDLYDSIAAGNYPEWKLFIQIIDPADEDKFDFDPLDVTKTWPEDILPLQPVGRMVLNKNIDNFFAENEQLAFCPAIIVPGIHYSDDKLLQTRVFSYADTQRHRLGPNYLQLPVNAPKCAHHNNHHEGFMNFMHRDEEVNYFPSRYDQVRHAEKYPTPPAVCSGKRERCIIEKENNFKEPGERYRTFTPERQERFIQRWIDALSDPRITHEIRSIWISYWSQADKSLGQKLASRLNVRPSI
T1 sequence (looked up) 2: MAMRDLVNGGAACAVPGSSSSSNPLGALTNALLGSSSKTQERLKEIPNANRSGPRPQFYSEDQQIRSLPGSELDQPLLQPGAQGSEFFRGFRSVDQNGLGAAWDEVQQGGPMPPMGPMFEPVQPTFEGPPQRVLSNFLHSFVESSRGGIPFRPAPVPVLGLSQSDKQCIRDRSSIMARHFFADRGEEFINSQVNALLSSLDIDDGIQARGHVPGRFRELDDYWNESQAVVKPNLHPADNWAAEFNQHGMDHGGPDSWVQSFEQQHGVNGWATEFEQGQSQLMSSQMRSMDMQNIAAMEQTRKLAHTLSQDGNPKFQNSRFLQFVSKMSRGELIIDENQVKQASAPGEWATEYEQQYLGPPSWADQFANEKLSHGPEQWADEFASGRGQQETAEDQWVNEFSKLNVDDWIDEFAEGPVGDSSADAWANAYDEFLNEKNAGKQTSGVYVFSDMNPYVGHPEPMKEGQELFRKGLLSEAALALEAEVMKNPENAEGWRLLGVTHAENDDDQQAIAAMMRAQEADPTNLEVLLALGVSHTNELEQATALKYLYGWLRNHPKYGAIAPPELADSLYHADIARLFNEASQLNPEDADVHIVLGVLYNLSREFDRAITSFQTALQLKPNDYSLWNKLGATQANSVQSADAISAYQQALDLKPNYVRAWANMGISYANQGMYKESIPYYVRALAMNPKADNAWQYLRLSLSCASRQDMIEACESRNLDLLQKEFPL

T2: peroxisome import receptor PEX5, recombinant Arabidopsis thaliana, full-length (Arabidopsis thaliana, UniProt Q9FMA3 1-728, unlabelled in MST; labelled with Atto-647 in the condensate imaging)
T2 construct: PEX5, peroxisomal PTS1 import receptor, Arabidopsis thaliana, full-length recombinant protein; cloning not described; The cloning of the PEX5 construct is not described in the methods
T2 sequence (looked up): T1 sequence (looked up) 2

B1: LESION SIMULATING DISEASE1 (LSD1), recombinant Arabidopsis thaliana, full-length (natural protein, UniProt P94077-2 1-184, looked up)
chain: MQDQLVCHGCRNLLMYPRGASNVRCALCNTINMVPPPPPPHDMAHIICGGCRTMLMYTRGASSVRCSCCQTTNLVPAHSNQVAHAPSSQVAQINCGHCRTTLMYPYGASSVKCAVCQFVTNVNMSNGRVPLPTNRPNGTACPPSTSTSTPPSQTQTVVVENPMSVDESGKLVSNVVVGVTTDKK
modifications: unlabelled when titrated in MST; labelled with Atto-550 in the condensate imaging
notes: LSD1 (LESION SIMULATING DISEASE1), Arabidopsis thaliana, full-length, cloned into pET28b with NdeI and NotI; pET28b with NdeI cloning would usually add an N-terminal His tag (surmise; source: dialysed)
B2: catalase 2 (CAT2), recombinant Arabidopsis thaliana, full-length (enzyme, UniProt P25819 1-492, looked up)
chain: T1 sequence (looked up) 1
modifications: labelled with Atto-488 (protein to dye 1:1) in MST and in the condensate imaging
notes: catalase 2 (CAT2), Arabidopsis thaliana, full-length recombinant protein; cloned into pET28b with NdeI and XhoI; pET28b with NdeI cloning would usually add an N-terminal His tag (surmise)

Assays:
[1] = biological target: T1, PEX5-CAT2 complex (Atto-488-labelled …); assay: MST; Atto-488-labelled CAT2 saturated with PEX5 (10-fold above the affinity value) before titration of LSD1; 25°C, 20 mM HEPES pH 7.5, 20 mM NaCl, 0.05% Tween 20; settings: both partners purified
[2] = biological target: catalase 2 (CAT2), recombinant Arabidopsis thaliana, full-length (Arabidopsis thaliana) (UniProt P25819)
[3] = biological target: T2, peroxisome import receptor PEX5, …; assay: MST; 100 nM Atto-488-labelled CAT2, unlabelled partner serially diluted; 25°C, 20 mM HEPES pH 7.5, 20 mM NaCl, 0.05% Tween 20; Monolith NT.115; settings: both partners purified

| Binder | Kd [1] | catalase activity (change of 240 nm absorbance in 30 mM H2O2) of 10 μM CAT2 mixed with 10 μM LSD1 to form LSD1-CAT2 condensates, against CAT2 alone [2] | Kd [3] |
| --- | --- | --- | --- |
| B1 | 136 ± 39.8 nM | 2.5 fold |  |
| B2 |  |  | 2350 ± 279 nM |
